PMC11732463

How the values were obtained:
[1] = Western blot of microsomal fractions; conditions: glycan lost; control: WT CerS6 microsomes
[2] = in situ 17C-sphingosine labeling, LC/MS of 17C-Sph-C16:0-ceramide; conditions: glycan lost; control: WT CerS6 in CerS6 KO HCT116
[3] = in vitro microsomes, NBD-sphingosine + C16:0-CoA, HPLC; conditions: glycan lost; control: WT CerS6 microsomes

B1: ceramide synthase 6 (CerS6): N18A (protein)
parent chain: MAGILAWFWNERFWLPHNVTWADLKNTEEATFPQAEDLYLAFPLAFCIFMVRLIFERFVAKPCAIALNIQANGPQIAPPNAILEKVFTAITKHPDEKRLEGLSKQLDWDVRSIQRWFRQRRNQEKPSTLTRFCESMWRFSFYLYVFTYGVRFLKKTPWLWNTRHCWYNYPYQPLTTDLHYYYILELSFYWSLMFSQFTDIKRKDFGIMFLHHLVSIFLITFSYVNNMARVGTLVLCLHDSADALLEAAKMANYAKFQKMCDLLFVMFAVVFITTRLGIFPLWVLNTTLFESWEIVGPYPSWWVFNLLLLLVQGLNCFWSYLIVKIACKAVSRGKVSKDDRSDIESSSDEEDSEPPGKNPHTATTTNGTSGTNGYLLTGSCSMDD
For B1, the expression_or_secretion [1] was “increases”, the enzymatic_activity [2] was “decreases, was approximately equal to that of LacZ expressing cells” and the enzymatic_activity [3] was “decreases, N18A CerS6 activity is not statistically different than that of the LacZ microsomes”.
